Test results from US20220025010A1 (ANTAG THERAPEUTICS, published 2022).
Where two headings read alike, the source gives them in different places. *1 amine or outer side, *2 acyl side, *3 side chain or, on linkers, in order; H or OH if unused. Where no end group is shown, it is not given here. Side-chain parts run from the residue outwards. [ ]: non-standard residue; d: D form. The star is where a group is joined. C18 diacid = O=C(O)CCCCCCCCCCCCCCCCC(=O)*; C16 diacid = O=C(O)CCCCCCCCCCCCCCC(=O)*; γGlu = O=C(O)[C@H](CCC(=O)[*:2])N[*:1]; pGlu = O=C1CC[C@@H](C(=O)O)N1; AEEA = NCCOCCOCC(=O)O

Legend:
Experiment in all cases: cell-based or functional assay
[1] = target: T1, human GIP receptor (human, UniProt P48546 22-466)
T1 sequence (looked up): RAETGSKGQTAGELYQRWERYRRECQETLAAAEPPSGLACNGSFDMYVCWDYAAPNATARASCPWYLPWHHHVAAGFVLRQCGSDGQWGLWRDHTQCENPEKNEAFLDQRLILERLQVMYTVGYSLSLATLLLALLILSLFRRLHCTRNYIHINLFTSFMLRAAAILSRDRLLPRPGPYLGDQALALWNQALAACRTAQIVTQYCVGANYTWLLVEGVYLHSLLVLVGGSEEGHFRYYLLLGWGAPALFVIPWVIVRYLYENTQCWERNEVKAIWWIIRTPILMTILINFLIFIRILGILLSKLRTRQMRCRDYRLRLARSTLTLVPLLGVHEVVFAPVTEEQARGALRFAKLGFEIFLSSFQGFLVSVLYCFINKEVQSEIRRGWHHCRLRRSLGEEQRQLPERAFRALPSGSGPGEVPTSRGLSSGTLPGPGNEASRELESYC

[2] = target: T1, human GIP receptor; remark: listed apart in the source
[3] = target: T1, human GIP receptor; remark: listed apart in the source
[4] = target: T1, human GIP receptor; remark: listed apart in the source
[5] = target: GLP1 receptor (UniProt P43220 24-463, limits assumed)

B1: AT355 (peptide)
peptide: SDYSIAMDKIK(C16 diacid)QQDFVNWLLAQK-NH2
modifications: N-terminus assumed
SMILES: CC[C@H](C)[C@H](NC(=O)[C@H](CO)NC(=O)[C@H](Cc1ccc(O)cc1)NC(=O)[C@H](CC(=O)O)NC(=O)[C@@H](N)CO)C(=O)N[C@@H](C)C(=O)N[C@@H](CCSC)C(=O)N[C@@H](CC(=O)O)C(=O)N[C@@H](CCCCN)C(=O)N[C@H](C(=O)N[C@@H](CCCCNC(=O)CCCCCCCCCCCCCCC(=O)O)C(=O)N[C@@H](CCC(N)=O)C(=O)N[C@@H](CCC(N)=O)C(=O)N[C@@H](CC(=O)O)C(=O)N[C@@H](Cc1ccccc1)C(=O)N[C@H](C(=O)N[C@@H](CC(N)=O)C(=O)N[C@@H](Cc1c[nH]c2ccccc12)C(=O)N[C@@H](CC(C)C)C(=O)N[C@@H](CC(C)C)C(=O)N[C@@H](C)C(=O)N[C@@H](CCC(N)=O)C(=O)N[C@@H](CCCCN)C(N)=O)C(C)C)[C@@H](C)CC
In the case of B1, the “CisBio cAMP agonism % Efficacy” value [1] is reported as 0%, the “CisBio cAMP antagonism % inhib” value [1] is reported as 65% and the “CisBio cAMP antagonism IC50” value [1] is reported as 233 nM. For the same binder, the “CisBio cAMP antagonism pIC50” value [1] was 6.6, the “cAMP antagonism % inhib” value [2] was 100% and the “cAMP antagonism IC50” value [2] was 53 nM. The “cAMP antagonism log IC50” value [2] was -7.3 log M.

B2: AT380 (peptide)
peptide: [pGlu]GTFISDYSIAMDRIK([AEEA-AEEA-AEEA-γGlu-C16 diacid])QQDFVNWLLAQR-NH2
B2 was tested, and the “CisBio cAMP agonism % Efficacy” value [1] was 8%, the “CisBio cAMP antagonism % inhib” value [1] was 82% and the “CisBio cAMP antagonism IC50” value [1] was 85.8 nM. The “CisBio cAMP antagonism pIC50” value [1] was 7.1, the “DiscoveRx cAMP antagonism % inhib” value [1] was 100% and the “DiscoveRx cAMP antagonism IC50” value [1] was 7 nM. The “DiscoveRx cAMP antagonism log IC50” value [1] was -8.1 log M and the “cAMP antagonism IC50 (finer than Table 1B)” value [3] was 7.3 nM.

B3: AT277 (peptide)
peptide: SGTFISDYSIAMDRIK([AEEA-AEEA-γGlu-C16 diacid])QQDFVNWLLAQR-OH
modifications: N-terminus assumed
SMILES: CC[C@H](C)[C@H](NC(=O)[C@H](CO)NC(=O)[C@H](Cc1ccc(O)cc1)NC(=O)[C@H](CC(=O)O)NC(=O)[C@H](CO)NC(=O)[C@@H](NC(=O)[C@H](Cc1ccccc1)NC(=O)[C@@H](NC(=O)CNC(=O)[C@@H](N)CO)[C@@H](C)O)[C@@H](C)CC)C(=O)N[C@@H](C)C(=O)N[C@@H](CCSC)C(=O)N[C@@H](CC(=O)O)C(=O)N[C@@H](CCCNC(=N)N)C(=O)N[C@H](C(=O)N[C@@H](CCCCNC(=O)COCCOCCNC(=O)COCCOCCNC(=O)CC[C@H](NC(=O)CCCCCCCCCCCCCCC(=O)O)C(=O)O)C(=O)N[C@@H](CCC(N)=O)C(=O)N[C@@H](CCC(N)=O)C(=O)N[C@@H](CC(=O)O)C(=O)N[C@@H](Cc1ccccc1)C(=O)N[C@H](C(=O)N[C@@H](CC(N)=O)C(=O)N[C@@H](Cc1c[nH]c2ccccc12)C(=O)N[C@@H](CC(C)C)C(=O)N[C@@H](CC(C)C)C(=O)N[C@@H](C)C(=O)N[C@@H](CCC(N)=O)C(=O)N[C@@H](CCCNC(=N)N)C(=O)O)C(C)C)[C@@H](C)CC
In the case of B3, the “CisBio cAMP agonism % Efficacy” value [1] is reported as 8%, the “CisBio cAMP antagonism % inhib” value [1] is reported as 84% and the “CisBio cAMP antagonism IC50” value [1] is reported as 31.6 nM. For the same binder, the “CisBio cAMP antagonism pIC50” value [1] was 7.5, the “DiscoveRx cAMP agonism Emax” value [1] was 9 and the “DiscoveRx cAMP antagonism IC50” value [1] was 16 nM. The “DiscoveRx cAMP antagonism log IC50” value [1] was -7.8 log M, the “CisBio cAMP antagonism % inhib” value [4] was 84% and the “CisBio cAMP antagonism IC50” value [4] was 31.6 nM. The “cAMP antagonism IC50” value [4] was 16 nM, the “cAMP antagonism % inhib” value [5] was 68% and the “cAMP antagonism IC50” value [5] was 6100 nM. For the same binder, the cAMP antagonism index [5] was 561 and the “cAMP antagonism log IC50” value [5] was -5.2 log M.

B4: AT390 (peptide)
peptide: [pGlu]GTFISDYSIAMDRIK(C16 diacid)QQDFVNWLLAQR-NH2
In the case of B4, the “CisBio cAMP agonism % Efficacy” value [1] is reported as 4%, the “CisBio cAMP antagonism % inhib” value [1] is reported as 81% and the “CisBio cAMP antagonism IC50” value [1] is reported as 15.9 nM. The “CisBio cAMP antagonism pIC50” value [1] was 7.8, the “DiscoveRx cAMP antagonism % inhib” value [1] was 100% and the “DiscoveRx cAMP antagonism IC50” value [1] was 1 nM. For the same binder, the “DiscoveRx cAMP antagonism log IC50” value [1] was -9.1 log M and the “cAMP antagonism IC50 (finer than Table 1B)” value [3] was 0.8 nM.

B5: AT382 (peptide)
peptide: [pGlu]GTFISDYSIAMDRIK([AEEA-AEEA-AEEA-γGlu-C18 diacid])QQDFVNWLLAQR-NH2
In the case of B5, the “CisBio cAMP agonism % Efficacy” value [1] is reported as 0%, the “CisBio cAMP antagonism % inhib” value [1] is reported as 83% and the “CisBio cAMP antagonism IC50” value [1] is reported as 25.1 nM. For the same binder, the “CisBio cAMP antagonism pIC50” value [1] was 7.6, the “DiscoveRx cAMP antagonism % inhib” value [1] was 100% and the “DiscoveRx cAMP antagonism IC50” value [1] was 2 nM. The “DiscoveRx cAMP antagonism log IC50” value [1] was -8.7 log M, the “CisBio cAMP antagonism % inhib” value [4] was 83% and the “CisBio cAMP antagonism IC50” value [4] was 25.1 nM. For the same binder, the “cAMP antagonism % inhib” value [4] was 100%, the “cAMP antagonism IC50” value [4] was 2 nM and the “cAMP antagonism IC50 (finer than Table 1B)” value [3] was 1.8 nM.

B6: AT357 (peptide)
peptide: YSIAMDKIK(C16 diacid)QQDFVNWLLAQK-NH2
modifications: N-terminus assumed
SMILES: CC[C@H](C)[C@H](NC(=O)[C@H](CO)NC(=O)[C@@H](N)Cc1ccc(O)cc1)C(=O)N[C@@H](C)C(=O)N[C@@H](CCSC)C(=O)N[C@@H](CC(=O)O)C(=O)N[C@@H](CCCCN)C(=O)N[C@H](C(=O)N[C@@H](CCCCNC(=O)CCCCCCCCCCCCCCC(=O)O)C(=O)N[C@@H](CCC(N)=O)C(=O)N[C@@H](CCC(N)=O)C(=O)N[C@@H](CC(=O)O)C(=O)N[C@@H](Cc1ccccc1)C(=O)N[C@H](C(=O)N[C@@H](CC(N)=O)C(=O)N[C@@H](Cc1c[nH]c2ccccc12)C(=O)N[C@@H](CC(C)C)C(=O)N[C@@H](CC(C)C)C(=O)N[C@@H](C)C(=O)N[C@@H](CCC(N)=O)C(=O)N[C@@H](CCCCN)C(N)=O)C(C)C)[C@@H](C)CC
With B6 the “CisBio cAMP agonism % Efficacy” value [1] was 0%, the “CisBio cAMP antagonism % inhib” value [1] was 40% and the “CisBio cAMP antagonism IC50” value [1] was 178 nM. For the same binder, the “CisBio cAMP antagonism pIC50” value [1] was 6.8, the “cAMP antagonism % inhib” value [2] was 100% and the “cAMP antagonism IC50” value [2] was 528 nM. For the same binder, the “cAMP antagonism log IC50” value [2] was -6.3 log M.

B7: AT353 (peptide)
peptide: FISDYSIAMDKIK(C16 diacid)QQDFVNWLLAQK-NH2
modifications: N-terminus assumed
SMILES: CC[C@H](C)[C@H](NC(=O)[C@H](CO)NC(=O)[C@H](Cc1ccc(O)cc1)NC(=O)[C@H](CC(=O)O)NC(=O)[C@H](CO)NC(=O)[C@@H](NC(=O)[C@@H](N)Cc1ccccc1)[C@@H](C)CC)C(=O)N[C@@H](C)C(=O)N[C@@H](CCSC)C(=O)N[C@@H](CC(=O)O)C(=O)N[C@@H](CCCCN)C(=O)N[C@H](C(=O)N[C@@H](CCCCNC(=O)CCCCCCCCCCCCCCC(=O)O)C(=O)N[C@@H](CCC(N)=O)C(=O)N[C@@H](CCC(N)=O)C(=O)N[C@@H](CC(=O)O)C(=O)N[C@@H](Cc1ccccc1)C(=O)N[C@H](C(=O)N[C@@H](CC(N)=O)C(=O)N[C@@H](Cc1c[nH]c2ccccc12)C(=O)N[C@@H](CC(C)C)C(=O)N[C@@H](CC(C)C)C(=O)N[C@@H](C)C(=O)N[C@@H](CCC(N)=O)C(=O)N[C@@H](CCCCN)C(N)=O)C(C)C)[C@@H](C)CC
B7 was tested, and the “CisBio cAMP agonism % Efficacy” value [1] was 0%, the “CisBio cAMP antagonism % inhib” value [1] was 90% and the “CisBio cAMP antagonism IC50” value [1] was 25.1 nM. For the same binder, the “CisBio cAMP antagonism pIC50” value [1] was 7.6, the “cAMP antagonism % inhib” value [2] was 100% and the “cAMP antagonism IC50” value [2] was 9 nM. For the same binder, the “cAMP antagonism log IC50” value [2] was -8.1 log M, the “CisBio cAMP antagonism % inhib” value [4] was 90% and the “CisBio cAMP antagonism IC50” value [4] was 25.1 nM. The “cAMP antagonism % inhib” value [4] was 100%, the “cAMP antagonism IC50” value [4] was 9 nM and the “cAMP antagonism % inhib” value [5] was 43%. For the same binder, the “cAMP antagonism IC50” value [5] was 169 nM, the cAMP antagonism index [5] was 44 and the “cAMP antagonism log IC50” value [5] was -6.8 log M.
